Test results from article PMC6112833, “Combinatorial engineering of N-TIMP2 variants that selectively inhibit MMP9 and MMP14 function in the cell” (Oncotarget, 2018).
Where a chain is given by its changes, count along the chain named.

T1: MMP9 catalytic domain lacking the fibronectin-like domain (MMP9CAT, residues 107-215 and 391-443) (human, UniProt P14780 107-215; P14780 391-443, conjugated to DyLight-650 for the yeast display sorting and flow cytometry)
T1 chain (looked up): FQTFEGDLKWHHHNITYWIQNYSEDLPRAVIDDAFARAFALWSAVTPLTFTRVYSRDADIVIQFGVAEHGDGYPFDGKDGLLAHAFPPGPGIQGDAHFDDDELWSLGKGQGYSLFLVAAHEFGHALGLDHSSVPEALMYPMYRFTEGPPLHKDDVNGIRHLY

T2: MMP1 catalytic domain (MMP1CAT) (UniProt P03956 100-269)
T2 construct: catalytic domain of MMP1 (collagenase); source: purified as previously described [66, 91]
T2 sequence (looked up): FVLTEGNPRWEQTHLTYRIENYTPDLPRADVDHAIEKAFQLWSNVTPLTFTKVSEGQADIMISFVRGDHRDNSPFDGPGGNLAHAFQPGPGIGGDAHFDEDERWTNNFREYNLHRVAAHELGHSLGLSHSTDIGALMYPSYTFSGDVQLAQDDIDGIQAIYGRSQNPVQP

B1: N-TIMP2WT, wild type N-terminal domain of the tissue inhibitor of metalloproteinase-2, soluble form (domain or fragment, UniProt P16035 27-153, looked up)
chain: CSCSPVHPQQAFCNADVVIRAKAVSEKEVDSGNDIYGNPIKRIQYEIKQIKMFKGPEKDIEFIYTAPSSAVCGVSLDVGGKKEYLIAGKAEGDGKMHITLCDFIVPWDTLSTTQKKSLNHRYQMGCE
notes: limits worked out from the printed primers (forward primer encodes CSCSP, reverse primer ends at YQMGCE); also called wild-type N-TIMP-2; source: P. pastoris X33 (pPICZalphaA), secreted, purified (Ni-NTA, Superdex 75 SEC)
B2: N-TIMP2_(14_17), soluble form (designed binder)
chain: B1 chain with S4D, I35L, N38S, S68D, V71S, H97S, T99F
notes: limits worked out from the printed primers (forward primer encodes CSCD, reverse primer ends at YQMGCE); source: P. pastoris X33 (pPICZalphaA), secreted, purified (Ni-NTA, Superdex 75 SEC)
B3: N-TIMP2_(14_18), soluble form (designed binder)
chain: B1 chain with S4K, I35L, N38F, S68F, H97E
notes: limits worked out from the printed primers (forward primer encodes CSCK, reverse primer ends at YQMGCE); also called N-TMP2_(14_18); source: P. pastoris X33 (pPICZalphaA), secreted, purified (Ni-NTA, Superdex 75 SEC)
B4: N-TIMP2_(9_13), soluble form (designed binder)
chain: B1 chain with S4P, I35P, N38W, S68N, H97K, T99K
notes: limits worked out from the printed primers (forward primer encodes CSCP, reverse primer ends at YQMGCE); source: P. pastoris X33 (pPICZalphaA), secreted, purified (Ni-NTA, Superdex 75 SEC)
B5: N-TIMP2_(9_1), soluble form (designed binder)
chain: B1 chain with S4P, I35P, N38W, S68N, V71I, H97M, T99K
notes: as for B4

target: T3, MMP14 catalytic domain (MMP14CAT, residues 112-292) (human, UniProt P50281 112-292, conjugated to DyLight-488 for the yeast display sorting and flow cytometry); assay: cell-based or functional assay; conditions: not given

B1 and B2 are the same in “inhibition of MMP2 activation by MMP14 in U87MG cells (gelatin zymography of media, 100 nM inhibitor, 48 h)” value: 45% for the first, 45% for the second.

In the case of B3, the “inhibition of MMP2 activation by MMP14 in U87MG cells (gelatin zymography of media, 100 nM inhibitor, 48 h)” value is reported as 50%.

Compared with B1, B2 is higher in “inhibition of trans-well migration of MCF-7-MMP14 cells (100 nM inhibitor, 24 h)” value: 30% for the first, 38% for the second.

B3 was tested, and the “inhibition of trans-well migration of MCF-7-MMP14 cells (100 nM inhibitor, 24 h)” value was roughly 50%.

Target: T1, MMP9 catalytic domain lacking the …
Assay: cell-based or functional assay
Conditions: not given

Going from B1 to B4, the “inhibition of the gelatin-degrading activity of MMP9 from MCF-7-MMP9 supernatant (gelatin zymography, gel incubated with 100 nM inhibitor)” value falls from roughly 86% to roughly 75%.

B5 was tested, and the “inhibition of the gelatin-degrading activity of MMP9 from MCF-7-MMP9 supernatant (gelatin zymography, gel incubated with 100 nM inhibitor)” value was roughly 82%.

target: T3, MMP14 catalytic domain (MMP14CAT, …); assay: enzyme inhibition assay (fluorogenic substrate, fit to Morrison's tight binding equation); 0.0075 nM MMP14CAT or MMP9CAT (MMP1CAT, MMP10CAT: concentration not stated) incubated with 0.4-25 nM or 1.5-500 nM inhibitor for 1 h at 37 C in TCNB buffer (50 mM Tris-HCl pH 7.5, 100 mM NaCl, 5 mM CaCl2, 0.05% Brij), then 15 uM Mca-Pro-Leu-Gly-Leu-Dpa-Ala-Arg-NH2; Ki from the apparent Ki; mean of three experiments; conditions: both partners purified

Going from B1 to B4, the Ki rises from 5 ± 1 nM to 832 ± 44 nM (170-fold). The first binds more tightly here.

First: B5
Second: B2
The Ki of the first is 8000-fold higher: 240 ± 31 nM for the first, 0.03 ± 0.003 nM for the second. The second binds more tightly here.

Work on B3 yielded a Ki of 0.024 ± 0.005 nM.

Target: T1, MMP9 catalytic domain lacking the …
Assay: as above
Conditions: both partners purified

Going from B1 to B4, the Ki rises from 0.5 ± 0.04 nM to 1.2 ± 0.007 nM (2.4-fold).

Compared with B5, B2 is 4.6-fold higher in Ki: 0.78 ± 0.02 nM for the first, 3.58 ± 0.5 nM for the second.

B3 gave a Ki of 1.25 ± 0.2 nM.

target: T4, MMP10 catalytic domain (MMP10CAT) (UniProt P09238 99-263); assay: as above; conditions: both partners purified
T4 construct: catalytic domain of MMP10 (stromelysin); source: purified as previously described [66, 91]
T4 sequence (P09238 99-263): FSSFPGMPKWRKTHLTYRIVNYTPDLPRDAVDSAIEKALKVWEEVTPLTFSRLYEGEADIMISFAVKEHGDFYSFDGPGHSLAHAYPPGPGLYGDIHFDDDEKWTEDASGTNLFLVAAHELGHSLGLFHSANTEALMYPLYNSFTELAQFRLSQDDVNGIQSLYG

Going from B1 to B4, the Ki rises from 3.5 ± 0.8 nM to 40 ± 14 nM (11-fold). The first binds more tightly here.

In the case of B2, the Ki is reported as 3.2 ± 0.4 nM.

target: T2, MMP1 catalytic domain (MMP1CAT); assay: as above; conditions: both partners purified

Going from B1 to B4, the Ki rises from 0.7 ± 0.1 nM to 18 ± 8 nM (26-fold).

B2 showed a Ki of 0.92 ± 0.15 nM.
